Test results reported in patent US20240116985A1 (published 2024).
Starred links: 1 amine or outer side, 2 acyl side, 3 side chain; linkers in the order of their positions; H or OH if unused. Positions of bridges follow the written chain, without caps; N, C: chain ends. Non-standard residues stand in square brackets, D forms with d. Primed or numbered codes have the meaning given here. B5(26) = 2-amino-2-(pent-4-en-1-yl)hept-6-enoic acid (bis-pentenylglycine), stitching residue carrying two staples, C=CCCCC(CCCC=C)(N[*:1])C(=O)[*:2]; B5(23) = 2-amino-2-(pent-4-en-1-yl)hept-6-enoic acid (2,2-bis(4-pentenyl)glycine), stitching residue, C=CCCCC(CCCC=C)(N[*:1])C(=O)[*:2]; B5(24) = 2-amino-2-(pent-4-en-1-yl)hept-6-enoic acid, 2,2-bis(4-pentenyl)glycine (stitching residue), C=CCCCC(CCCC=C)(N[*:1])C(=O)[*:2]; B5(4) = 2,2-bis(4-pentenyl)glycine = 2-amino-2-(pent-4-en-1-yl)hept-6-enoic acid (stitching residue), C=CCCCC(CCCC=C)(N[*:1])C(=O)[*:2]; B5(21) = 2-amino-2-(pent-4-en-1-yl)hept-6-enoic acid, bis(4-pentenyl)glycine (stitching residue), C=CCCCC(CCCC=C)(N[*:1])C(=O)[*:2]; S(OMe) = O-methyl-L-serine, COC[C@H](N[*:1])C(=O)[*:2]; Phe(3-COOH) = N[C@@H](Cc1cccc(C(=O)O)c1)C(=O)O; Phe(2-Br) = N[C@@H](Cc1ccccc1Br)C(=O)O; Phe(2-Cl) = N[C@@H](Cc1ccccc1Cl)C(=O)O; His(τ-Me) = Cn1cnc(C[C@H](N)C(=O)O)c1; Phe(2-F) = N[C@@H](Cc1ccccc1F)C(=O)O; Bta = N[C@@H](Cc1csc2ccccc12)C(=O)O; His(π-Me) = Cn1cncc1C[C@H](N)C(=O)O; αAllylPro = C=CC[C@@]1(C(=O)O)CCCN1; tBuAla = CC(C)(C)C[C@H](N)C(=O)O; 3Thi = N[C@@H](Cc1ccsc1)C(=O)O; S8 = C=CCCCCCC[C@](C)(N)C(=O)O; PyrS2(4) = not defined here

B1: I-1917 (peptide)
peptide: Ac-[αAllylPro]D[tBuAla][B5(4)]D[Phe(3-COOH)]KAFL[PyrS2(4)][3Thi][Bta]A-NH2
modifications: staple 1-4, 4-11; not fully specified; printed as Ac-PL3-Asp-Npg-B5-Asp-3COOHF-Lys-Ala-Phe-Leu-PyrS2-3Thi-BztA-Ala-NH2; reading uncertain
B2: I-440 (peptide)
peptide: XDAXDEAAFNXHXQ
modifications: not fully specified; N-terminal Ac, C-terminal NH2; non-natural PL3(1), B5(4), S8(11), 1meH(12), BztA(13); staples PL3-B5 and B5-S8 (olefin metathesis)
notes: Stapled peptide composition
B3: I-756 (peptide)
peptide: Ac-[αAllylPro]DL[B5(4)]DEAAFN[S8]F[Bta][dS]-NH2
modifications: staple 1-4, 4-11
notes: Stapled peptide; also called Ac-PL3-Asp-Leu-B5-Asp-Glu-Ala-Ala-Phe-Asn-S8-Phe-BztA-dSer-NH2
B4: I-754 (peptide)
peptide: XDLXDEAAFNXFXT
modifications: not fully specified; Ac-PL3-Asp-Leu-B5-Asp-Glu-Ala-Ala-Phe-Asn-S8-Phe-BztA-dThr-NH2: N-terminal acetyl; C-terminal amide; PL3 at 1, B5 at 4, S8 at 11 (stapled 1-4 and 4-11 by olefin metathesis); BztA at 13; D-Thr at 14
notes: Stapled peptide; also called Ac-PL3-Asp-Leu-B5-Asp-Glu-Ala-Ala-Phe-Asn-S8-Phe-BztA-dThr-NH2
B5: I-758 (peptide)
peptide: Ac-[αAllylPro]DL[B5(4)]DEAAFN[S8]F[Bta][dN]-NH2
modifications: staple 1-4, 4-11; also: later eluting HPLC peak (staple isomer)
notes: Stapled peptide; also called Ac-PL3-Asp-Leu-B5-Asp-Glu-Ala-Ala-Phe-Asn-S8-Phe-BztA-dAsn-NH2
B6: I-755 (peptide)
peptide: Ac-[αAllylPro]DL[B5(4)]DEAAFN[S8]F[Bta][dT]-NH2
modifications: staple 1-4, 4-11; also: later eluting HPLC peak (staple isomer)
notes: as for B4
B7: I-757 (peptide)
peptide: Ac-[αAllylPro]DL[B5(4)]DEAAFN[S8]F[Bta][dN]-NH2
modifications: staple 1-4, 4-11; also: earlier eluting HPLC peak (staple isomer)
notes: Stapled peptide; same description as I-758, earlier eluting HPLC peak (staple isomer composition); also called Ac-PL3-Asp-Leu-B5-Asp-Glu-Ala-Ala-Phe-Asn-S8-Phe-BztA-dAsn-NH2

What follows are binders tested against T1, B-cat-Halo (beta-catenin HaloTag construct transfected into HEK293 cells) (UniProt P35222 1-781) (assay: cell-based or functional assay).
T1 sequence (looked up): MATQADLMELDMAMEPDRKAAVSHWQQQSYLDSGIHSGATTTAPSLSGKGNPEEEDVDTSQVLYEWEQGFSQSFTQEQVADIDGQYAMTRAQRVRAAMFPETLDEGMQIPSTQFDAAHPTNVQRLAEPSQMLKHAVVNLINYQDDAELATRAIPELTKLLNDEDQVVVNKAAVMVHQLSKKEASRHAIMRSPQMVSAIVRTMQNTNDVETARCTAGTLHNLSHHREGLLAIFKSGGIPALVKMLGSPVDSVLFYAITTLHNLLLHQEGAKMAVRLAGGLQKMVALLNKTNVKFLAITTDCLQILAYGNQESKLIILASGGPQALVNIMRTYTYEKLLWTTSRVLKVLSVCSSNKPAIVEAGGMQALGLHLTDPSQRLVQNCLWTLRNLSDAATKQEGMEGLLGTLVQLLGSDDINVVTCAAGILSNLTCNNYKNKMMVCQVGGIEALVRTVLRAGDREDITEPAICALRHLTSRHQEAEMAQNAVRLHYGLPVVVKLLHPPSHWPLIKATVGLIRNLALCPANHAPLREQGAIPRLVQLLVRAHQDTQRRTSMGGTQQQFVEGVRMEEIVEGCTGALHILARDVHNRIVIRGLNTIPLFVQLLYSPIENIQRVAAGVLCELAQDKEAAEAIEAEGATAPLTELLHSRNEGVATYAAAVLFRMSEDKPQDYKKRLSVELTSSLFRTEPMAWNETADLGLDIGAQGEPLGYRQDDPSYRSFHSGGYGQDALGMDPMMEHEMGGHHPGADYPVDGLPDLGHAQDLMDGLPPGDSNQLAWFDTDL

How did the “NanoBRET Abs IC50” value turn out when B1 was run?
The value was 37.7 µM.

What follows are binders tested against T2, full-length beta-Catenin (Uniprot ID P35222) (Homo sapiens (Human), UniProt P35222 1-781) (assay: fluorescence polarization competition; peptide titrated against 10 nM full-length beta-catenin + 10 nM 5FAM-TCF4(10-53) probe).
T2 construct: The assay text says 'full-length'; also called bCat; B-Catenin
T2 sequence: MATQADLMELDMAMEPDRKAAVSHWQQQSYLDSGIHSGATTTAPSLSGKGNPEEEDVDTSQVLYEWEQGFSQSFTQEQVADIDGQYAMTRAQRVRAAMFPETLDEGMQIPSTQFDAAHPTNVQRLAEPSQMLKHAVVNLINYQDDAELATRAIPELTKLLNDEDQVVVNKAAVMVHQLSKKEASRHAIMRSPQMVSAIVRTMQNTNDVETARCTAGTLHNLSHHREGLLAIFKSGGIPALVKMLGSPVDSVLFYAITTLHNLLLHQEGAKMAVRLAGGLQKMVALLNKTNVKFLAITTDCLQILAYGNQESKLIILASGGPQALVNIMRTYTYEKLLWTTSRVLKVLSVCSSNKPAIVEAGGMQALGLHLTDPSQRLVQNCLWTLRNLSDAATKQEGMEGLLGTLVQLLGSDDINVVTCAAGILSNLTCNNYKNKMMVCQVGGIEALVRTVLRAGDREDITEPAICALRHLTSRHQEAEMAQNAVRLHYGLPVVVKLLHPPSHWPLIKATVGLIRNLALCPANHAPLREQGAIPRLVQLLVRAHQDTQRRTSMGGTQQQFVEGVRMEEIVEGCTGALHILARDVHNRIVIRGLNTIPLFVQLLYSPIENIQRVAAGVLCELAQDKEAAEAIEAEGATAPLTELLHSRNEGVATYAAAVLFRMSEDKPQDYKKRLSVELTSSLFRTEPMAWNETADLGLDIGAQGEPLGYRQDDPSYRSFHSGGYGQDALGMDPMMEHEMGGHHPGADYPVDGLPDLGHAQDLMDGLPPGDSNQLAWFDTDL
Experimental: The plate was incubated protected from light for 60 minutes at 20° C. prior to read. Reads were performed on a CLARIOstar plate reader (BMG Labtech) in duplicate, and data were fitted to a 1:1 binding model with hill slope using an in-house script. All provided concentrations are final concentrations.

How did the IC50 turn out when Ac-[αAllylPro]DA[B5(24)]DEAAFN[S8][Phe(2-F)][Bta]Q-NH2 (staple 1-4, 4-11, Stapled peptide composition) [I-434] was run?
Its IC50 is 0.0675 µM.

Which IC50 does the source give for Ac-[αAllylPro]DA[B5(24)]DEAAFN[S8][Phe(2-Cl)][Bta]Q-NH2 (staple 1-4, 4-11, Stapled peptide composition) [I-435] here?
The IC50 was 0.07 µM.

Ac-[αAllylPro]DA[B5(24)]DEAAFN[S8][Phe(2-Br)][Bta]Q-NH2 (staple 1-4, 4-11, Stapled peptide composition) [I-436] was tested. Which IC50 did it give?
Its IC50 is 0.056 µM.

With Ac-[αAllylPro]DA[B5(23)]DEAAFT[S8]F[Bta]H-NH2 (staple 1-4, 4-11, Stapled peptide composition) [I-420] as the binder, how does the IC50 read?
Its IC50 is 0.128 µM.

With Ac-[αAllylPro]DA[B5(24)]DEAAF[S(OMe)][S8]F[Bta]Q-NH2 (staple 1-4, 4-11, Stapled peptide composition) [I-433] as the binder, how does the IC50 read?
The IC50 was 0.136 µM.

How did the IC50 turn out when Ac-[αAllylPro]DA[B5(23)]DEAAFT[S8]F[Bta]Q-NH2 (staple 1-4, 4-11, Stapled peptide composition) [I-423] was run?
The IC50 was 0.105 µM.

Ac-[αAllylPro]DA[B5(21)]DEAAFN[S8][His(τ-Me)][Bta]Q-NH2 (staple 1-4, 4-11, Stapled peptide composition) [I-439] was tested. Which IC50 did it give?
Its IC50 is 5 µM.

How did the IC50 turn out when B2 was run?
Its IC50 is 5 µM.

For Ac-[αAllylPro]DA[B5(26)]DEAAFN[S8][His(π-Me)][Bta]Q-NH2 (staple 1-4, 4-11, Stapled peptide composition) [I-438], which IC50 is on record?
The IC50 was 5 µM.

Each binder was assayed against T3, full-length beta-Catenin (Uniprot ID P35222) (Homo sapiens (Human), UniProt P35222 1-781) (assay: fluorescence polarization competition; full-length beta-catenin with 5FAM-TCF4(10-53) probe as competitor).
T3 construct: also called bCat; B-Catenin
T3 sequence: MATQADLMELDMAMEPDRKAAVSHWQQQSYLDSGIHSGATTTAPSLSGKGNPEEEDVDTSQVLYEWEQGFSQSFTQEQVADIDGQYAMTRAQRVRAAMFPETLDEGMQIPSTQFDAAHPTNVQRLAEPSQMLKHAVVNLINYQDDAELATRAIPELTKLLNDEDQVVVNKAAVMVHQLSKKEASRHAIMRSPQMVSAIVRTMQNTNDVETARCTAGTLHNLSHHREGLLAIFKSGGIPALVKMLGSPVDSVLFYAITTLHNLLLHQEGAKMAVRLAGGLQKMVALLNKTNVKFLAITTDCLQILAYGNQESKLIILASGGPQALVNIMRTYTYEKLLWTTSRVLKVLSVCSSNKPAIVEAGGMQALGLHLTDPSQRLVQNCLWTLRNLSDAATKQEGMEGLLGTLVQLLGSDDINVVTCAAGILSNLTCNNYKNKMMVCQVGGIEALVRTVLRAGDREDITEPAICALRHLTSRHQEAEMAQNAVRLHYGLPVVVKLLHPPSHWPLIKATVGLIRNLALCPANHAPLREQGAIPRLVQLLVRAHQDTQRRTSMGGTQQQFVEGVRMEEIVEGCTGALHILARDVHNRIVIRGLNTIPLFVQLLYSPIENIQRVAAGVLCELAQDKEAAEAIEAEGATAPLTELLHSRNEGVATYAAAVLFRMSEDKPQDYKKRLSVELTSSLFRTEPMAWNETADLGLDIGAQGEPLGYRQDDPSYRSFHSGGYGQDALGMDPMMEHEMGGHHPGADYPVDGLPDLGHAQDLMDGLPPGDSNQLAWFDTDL
How it was run: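 Incubate 60 minutes at 20° C. away from light, then read polarization in duplicate. Fit to 1:1 binding with hill slope.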

B3 was tested. Which IC50 did it give?
Its IC50 is 0.056 µM.

Which IC50 does the source give for B4 here?
Its IC50 is 0.115 µM.

How did the IC50 turn out when B5 was run?
The IC50 was 0.047 µM.

With B6 as the binder, how does the IC50 read?
The IC50 was 0.088 µM.

How did the IC50 turn out when B7 was run?
Its IC50 is 0.064 µM.
